Numbering of substitutions follows the chain as printed. Blank lines part the entries; values can stand above or below the binder they belong to.
Assays:
[1] = molecular target: recombinant human GREM1 (hGREM1-His; C-terminal 10His tagged, R&D, #5190-GR) (human) (UniProt O60565); assay: BLI Octet, captured mAb, 100 nM GREM1
[2] = molecular target: recombinant human GREM1 (hGREM1-His; C-terminal 10His tagged, R&D, #5190-GR) (human) (UniProt O60565); assay: BLI Octet, captured mAb, 100 nM GREM1 + 5 uM heparin
[3] = molecular target: recombinant human GREM1 (hGREM1-His; C-terminal 10His tagged, R&D, #5190-GR) (human) (UniProt O60565); assay: cell-based or functional assay
[4] = molecular target: recombinant human GREM1 (hGREM1-His; C-terminal 10His tagged, R&D, #5190-GR) (human) (UniProt O60565); assay: BLI Octet, captured mAb, 100 nM GREM1 without vs with 5 uM heparin

Chain of recombinant human GREM1 (hGREM1-His; C-terminal 10His tagged, R&D, #5190-GR) (human) (O60565 other isoform, or with tags, fused parts or gaps limits assumed, form in doubt): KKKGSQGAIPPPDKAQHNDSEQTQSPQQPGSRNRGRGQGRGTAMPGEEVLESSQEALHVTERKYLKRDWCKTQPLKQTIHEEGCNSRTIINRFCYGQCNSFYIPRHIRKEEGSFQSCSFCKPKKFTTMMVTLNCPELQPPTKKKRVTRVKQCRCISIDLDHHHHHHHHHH

B2: H4H2892N (antibody, human IgG4, V domains shown)
VH: QVQLVESGGGVVQPGRSLRLSCAASGFTFSSYGIHWVRQAPGKGLEWVAILWYDGSNKYYADSVKGRFTISRDNSKTTLYLQMNSLRAEDTAVYYCARENYNDLNFDLWGRGTLVTVSS
VL: DIQLTQSPSFLSASVGDRVTITCWASQGISSYLAWYQHKPGKAPKLLIYAASTLQSGVPSRFSGSGSGIEFTLTISSLQPEDFATYYCQQLKSYPPWTFGQGTKVEIR
Binding Signal with 30 sec Association (nm) [1]: 0.2 nm | Binding Signal with 300 sec Association (nm) [1]: 0.49 nm | Binding Signal with 30 sec Association (nm) [2]: 0.15 nm | Binding Signal with 300 sec Association (nm) [2]: 0.49 nm | IC50 [M], W-20-17/BRE-luc luciferase bioassay, 100 pM hBMP4 and 10 nM hGREM1-His [3]: 9.5e-10 M | hGREM1-His Inhibition IC50, M; W-20-17 cell differentiation assay (alkaline phosphatase) [3]: 4.4 nM | Reduction in Signal from Heparin at 30 sec [4]: 0.05 nm | Reduction in Signal from Heparin at 300 sec [4]: 0 nm

B3: H4H2889N (antibody, human IgG4, V domains shown)
VH: QVQLQESGPGLVKPSETLSLTCTVSGGSISNSYWSWIRQPPGKGLEWIGYIYYSGNTNYNPSLKSRVTISVDTSKNQFSLKLSSVTAADTAVYYCARVNDYSNYDSYYYGMDVWGQGTTVTVSS
VL: AIQMTQSPSSLSASVGDRVTITCRASQGIRNDLGWYQQKPGKAPKLLIYAASSLQSGVPSRFSGSGSGTDFTLTISSLQPEDFATYYCLQDYNYPPTFGQGTKVDIK
Binding Signal with 30 sec Association (nm) [1]: 0.2 nm | Binding Signal with 300 sec Association (nm) [1]: 0.46 nm | Binding Signal with 30 sec Association (nm) [2]: 0.05 nm | Binding Signal with 300 sec Association (nm) [2]: 0.44 nm | IC50 [M], W-20-17/BRE-luc luciferase bioassay, 100 pM hBMP4 and 10 nM hGREM1-His [3]: 1.2e-09 M | hGREM1-His Inhibition IC50, M; W-20-17 cell differentiation assay (alkaline phosphatase) [3]: 5.4 nM | Reduction in Signal from Heparin at 30 sec [4]: 0.15 nm | Reduction in Signal from Heparin at 300 sec [4]: 0.02 nm

B5: H4H2780N (antibody, human IgG4, V domains shown)
VH: EVQLVESGGGLVKPGGSLRLSCAASGFTFSTYSMNWVRQAPGKGLEWVSSISSGSSYIYYTDSVKGRFTISRDNAKNSLYLQMNSLRAEDTAVYYCARFGSYYYFGFDVWGQGTTVTVSS
VL: DIQMTQSPSSLSASVGDRVTITCRASQGISNYLAWYQQKPGKVPKLLIFSASTLQSGVPSRFSGSGSGPDFTLTVSSLQPEDVATYYCQKYNSAPFAFGPGTKVDIK
Binding Signal with 30 sec Association (nm) [1]: 0.13 nm | Binding Signal with 300 sec Association (nm) [1]: 0.58 nm | Binding Signal with 30 sec Association (nm) [2]: 0.13 nm | Binding Signal with 300 sec Association (nm) [2]: 0.58 nm | IC50 [M], W-20-17/BRE-luc luciferase bioassay, 100 pM hBMP4 and 10 nM hGREM1-His [3]: 49 | Reduction in Signal from Heparin at 30 sec [4]: 0 nm | Reduction in Signal from Heparin at 300 sec [4]: 0 nm

B6: H4H2895N (antibody, human IgG4, V domains shown)
VH: EVQLVESGGGLVQPGGSLRLSCAASGFTVSSNYMSWVRQAPGKGLEWVSVIYSGGNTYYADSVKGRFTISRHNSKNTLYLQMNSLRAEDTAVYYCARDLGIKSDYWGQGTLVTVSS
VL: EIVLTQSPDFQSVTPKEKVTITCRASQSIGTTLHWYQQKPDQSPKLLIKYVSQSLSGVPSRFSGSGSGTDFTLTINSLEAEDAATYYCHQSSSLPWTFGQGTKVEIK
Binding Signal with 30 sec Association (nm) [1]: 0.15 nm | Binding Signal with 300 sec Association (nm) [1]: 0.5 nm | Binding Signal with 30 sec Association (nm) [2]: 0.22 nm | Binding Signal with 300 sec Association (nm) [2]: 0.54 nm | IC50 [M], W-20-17/BRE-luc luciferase bioassay, 100 pM hBMP4 and 10 nM hGREM1-His [3]: 5.8e-10 M | hGREM1-His Inhibition IC50, M; W-20-17 cell differentiation assay (alkaline phosphatase) [3]: 1.9 nM | Reduction in Signal from Heparin at 30 sec [4]: -0.07 nm | Reduction in Signal from Heparin at 300 sec [4]: -0.04 nm

B11: H4H2783N2 (antibody, human IgG4, V domains shown)
VH: EVQLLESGGGLVQPGGSLRLSCAASGFTFSSYVMNWVRQAPGKGLEWVSAISGSGGSTYYADSVKGRSTISRDNSKNTLYLQMNSLRAEDTAIYYCAKGDIAAIVFDAFDIWGQGTVVTVSS
VL: DIQMTQSPSSLSASVGDRVTITCQASQDISSALNWYQHKPGKAPKLLIYDASYLETGVPSRFSGSGSGTDFTFTISSLQPEDIATYYCQQYDNLPYTFGQGTKLEIK
Binding Signal with 30 sec Association (nm) [1]: 0.29 nm | Binding Signal with 300 sec Association (nm) [1]: 0.47 nm | Binding Signal with 30 sec Association (nm) [2]: 0.01 nm | Binding Signal with 300 sec Association (nm) [2]: 0.29 nm | IC50 [M], W-20-17/BRE-luc luciferase bioassay, 100 pM hBMP4 and 10 nM hGREM1-His [3]: 1.3e-09 M | hGREM1-His Inhibition IC50, M; W-20-17 cell differentiation assay (alkaline phosphatase) [3]: 5.6 nM | Reduction in Signal from Heparin at 30 sec [4]: 0.28 nm | Reduction in Signal from Heparin at 300 sec [4]: 0.18 nm

Next, values leading:

Binding Signal with 30 sec Association (nm) [1]: 0.23 nm | Binding Signal with 300 sec Association (nm) [1]: 0.49 nm | Binding Signal with 30 sec Association (nm) [2]: 0.07 nm | Binding Signal with 300 sec Association (nm) [2]: 0.42 nm | IC50 [M], W-20-17/BRE-luc luciferase bioassay, 100 pM hBMP4 and 10 nM hGREM1-His [3]: 1.2e-09 M | hGREM1-His Inhibition IC50, M; W-20-17 cell differentiation assay (alkaline phosphatase) [3]: 13 nM | Reduction in Signal from Heparin at 30 sec [4]: 0.16 nm | Reduction in Signal from Heparin at 300 sec [4]: 0.07 nm
B1: H4H2926N (antibody, human IgG4, V domains shown)
VH: EVQLVESGGGLVQTGRSLRLSCAASGFTFDDYAMNWVRQAPGKGLEWVSGISWNSGNIGYADSVKGRFTISRDNAKNSLYLQMNSLRAEDTALYYCVKYIGQQLVQDYFDYWGQGTLVTVSS
VL: DIQMTQSPSSLSASVGDRVTITCQASQDITNYLNWYQQRPGKAPKLLIYDAFNLERGVPSRFSGSGYGTYFTFTISSLQPEDIAIYYCQQYDNLPLTFGGGTKVEIE

Binding Signal with 30 sec Association (nm) [1]: 0.15 nm | Binding Signal with 300 sec Association (nm) [1]: 0.6 nm | Binding Signal with 30 sec Association (nm) [2]: 0.14 nm | Binding Signal with 300 sec Association (nm) [2]: 0.52 nm | Reduction in Signal from Heparin at 30 sec [4]: 0.01 nm | Reduction in Signal from Heparin at 300 sec [4]: 0.08 nm
B4: H4H6269P (antibody, human IgG4, V domains shown)
VH: QVQLQESGPGLVKPSQTLSLTCTVSGGSISSGGYYWTWIRQHPGKGLEWIGYIYYSGSTYYNPSLKSRVTMSVDTSKNQFSLKLSSVTAADTAVYYCARLLDFDYWGQGTLVTVSS
VL: B3 VL with T69R, T85S, Y92H, P96L, Q100G, D105E

Binding Signal with 30 sec Association (nm) [1]: 0.19 nm | Binding Signal with 300 sec Association (nm) [1]: 0.38 nm | Binding Signal with 30 sec Association (nm) [2]: 0.06 nm | Binding Signal with 300 sec Association (nm) [2]: 0.34 nm | IC50 [M], W-20-17/BRE-luc luciferase bioassay, 100 pM hBMP4 and 10 nM hGREM1-His [3]: 5.6e-10 M | hGREM1-His Inhibition IC50, M; W-20-17 cell differentiation assay (alkaline phosphatase) [3]: 6.2 nM | Reduction in Signal from Heparin at 30 sec [4]: 0.13 nm | Reduction in Signal from Heparin at 300 sec [4]: 0.04 nm
B7: H4H6246P (antibody, human IgG4, V domains shown)
VH: QVQLVESGGGVVQPGRSLRLSCAASGFTFSSYGMHWVRQAPGKGLEWVAIIWYDGSNRYYADSVKGRFTISRDNSRNTLYLQMNSLRAEDTAVYYCARDEYGDYDYPFDYWGQGTLVTVSS
VL: DIQMTQSPSSLSASVGDRVTITCRASQGIRNDLGWFQQKPGKAPKRLIYAASSLQSGVPSRFSGSGSGTEFTLTISSLQPEDFATYYCLQHNTYPPFTFGPGTKVDIK

Binding Signal with 30 sec Association (nm) [1]: 0.23 nm | Binding Signal with 300 sec Association (nm) [1]: 0.53 nm | Binding Signal with 30 sec Association (nm) [2]: 0.05 nm | Binding Signal with 300 sec Association (nm) [2]: 0.37 nm | IC50 [M], W-20-17/BRE-luc luciferase bioassay, 100 pM hBMP4 and 10 nM hGREM1-His [3]: 8.1e-10 M | hGREM1-His Inhibition IC50, M; W-20-17 cell differentiation assay (alkaline phosphatase) [3]: 7.8 nM | Reduction in Signal from Heparin at 30 sec [4]: 0.18 nm | Reduction in Signal from Heparin at 300 sec [4]: 0.16 nm
B8: H4H6240P (antibody, human IgG4, V domains shown)
VH: QVQLVESGGGVVQPGRSLRLSCAASGFTFSSYGMHWVRQAPGKGLEWVAVIWYDGSNKYYADSVKGRFIISRDNSKNMMYLQMNSLRAEDTAVYYCAREDNWNYAFDYWGQGTLVTVSS
VL: EIVMTQSPATLSVSPGERATLSCRASQSISSNLAWYQQKPGQAPRLLIYDSSTRATGIPARFSGSGSGTQFTLTISSLQSEDFALYYCQQYSNWPPFTFGPGTKVDIK

Binding Signal with 30 sec Association (nm) [1]: 0.33 nm | Binding Signal with 300 sec Association (nm) [1]: 0.48 nm | Binding Signal with 30 sec Association (nm) [2]: 0.06 nm | Binding Signal with 300 sec Association (nm) [2]: 0.46 nm | IC50 [M], W-20-17/BRE-luc luciferase bioassay, 100 pM hBMP4 and 10 nM hGREM1-His [3]: 7.8e-10 M | hGREM1-His Inhibition IC50, M; W-20-17 cell differentiation assay (alkaline phosphatase) [3]: 4.5 nM | Reduction in Signal from Heparin at 30 sec [4]: 0.27 nm | Reduction in Signal from Heparin at 300 sec [4]: 0.02 nm
B9: H4H6232P (antibody, human IgG4, V domains shown)
VH: QVQLVQSGAEVKKPGASVKVSCKVSGYTLTELSMHWVRQAPGKGLEWMGGFDPEDGETIYAQKFQGRLTMTEDTSTDTAYMELSSLRSEDTAVYYCATDDYDILTSYPYNMDVWGQGTTVTVSS
VL: DIQMTQSPSSLSASVGDRVTITCRASQSINNYLNWYQQKPGKAPKLLIYAASSLQSGVPSRFSGSGSGTDFTLTISSLQPEDFGTYYCQQSDSTPFTFGPGTKVDIK

Binding Signal with 30 sec Association (nm) [1]: 0.3 nm | Binding Signal with 300 sec Association (nm) [1]: 0.47 nm | Binding Signal with 30 sec Association (nm) [2]: 0 nm | Binding Signal with 300 sec Association (nm) [2]: 0.21 nm | IC50 [M], W-20-17/BRE-luc luciferase bioassay, 100 pM hBMP4 and 10 nM hGREM1-His [3]: 5.4e-10 M | hGREM1-His Inhibition IC50, M; W-20-17 cell differentiation assay (alkaline phosphatase) [3]: 5.9 nM | Reduction in Signal from Heparin at 30 sec [4]: 0.3 nm | Reduction in Signal from Heparin at 300 sec [4]: 0.26 nm
B10: H4H6243P (antibody, human IgG4, V domains shown)
VH: B9 VH with G66D, L68V, A97V, D102E, T105P, S106E
VL: B9 VL with N30S, N31T, S76R, G84A, D92H, S93I

Binding Signal with 30 sec Association (nm) [1]: 0.23 nm | Binding Signal with 300 sec Association (nm) [1]: 0.41 nm | Binding Signal with 30 sec Association (nm) [2]: 0.02 nm | Binding Signal with 300 sec Association (nm) [2]: 0.22 nm | IC50 [M], W-20-17/BRE-luc luciferase bioassay, 100 pM hBMP4 and 10 nM hGREM1-His [3]: 5.3e-10 M | hGREM1-His Inhibition IC50, M; W-20-17 cell differentiation assay (alkaline phosphatase) [3]: 6.1 nM | Reduction in Signal from Heparin at 30 sec [4]: 0.21 nm | Reduction in Signal from Heparin at 300 sec [4]: 0.19 nm
B12: H4H6245P (antibody, human IgG4, V domains shown)
VH: EVQLVESGGGLVQPGGSLRLSCAASGFTFNSFWMSWVRQAPGKGLEWVANIKQDGSEKYYVDSVKGRFTISRDNAKNSVYLQMNSLRAEDTAVYYCARDLVTSFDYWGQGTLVTVSS
VL: B11 VL with S30N, S31N, A32Y, H38Q, R61G, N93S

From US20230192831A1
